Data as given in patent publication US20260263521A1, “ANTI-CD200R1 ANTIBODY AND USE THEREOF” (AIMED BIO INC., priority 2023, published 2026).
Positions count from the first letter of the chain named.

T1: CD200R1 on HH (CRL-2105) cells (Homo sapiens, UniProt Q8TD46)
T1 construct: HH (CRL-2105) cells, which endogenously express CD200R1; host or cells: HH (CRL-2105) cells
T1 sequence (Q8TD46 25-348): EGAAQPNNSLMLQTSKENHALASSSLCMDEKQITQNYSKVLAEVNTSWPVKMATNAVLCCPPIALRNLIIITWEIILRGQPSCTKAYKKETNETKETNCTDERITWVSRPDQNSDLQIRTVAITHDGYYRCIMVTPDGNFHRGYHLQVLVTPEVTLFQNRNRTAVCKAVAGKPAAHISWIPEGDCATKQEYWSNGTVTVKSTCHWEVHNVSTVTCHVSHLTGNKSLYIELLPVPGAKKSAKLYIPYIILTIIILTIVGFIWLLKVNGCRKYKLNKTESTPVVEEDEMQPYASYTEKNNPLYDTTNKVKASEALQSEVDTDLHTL

T2: mouse CD200R1 protein (Mus musculus, UniProt Q9ES57)
T2 construct: purchased R&D systems 2554-CD
T2 sequence (Q9ES57 26-326): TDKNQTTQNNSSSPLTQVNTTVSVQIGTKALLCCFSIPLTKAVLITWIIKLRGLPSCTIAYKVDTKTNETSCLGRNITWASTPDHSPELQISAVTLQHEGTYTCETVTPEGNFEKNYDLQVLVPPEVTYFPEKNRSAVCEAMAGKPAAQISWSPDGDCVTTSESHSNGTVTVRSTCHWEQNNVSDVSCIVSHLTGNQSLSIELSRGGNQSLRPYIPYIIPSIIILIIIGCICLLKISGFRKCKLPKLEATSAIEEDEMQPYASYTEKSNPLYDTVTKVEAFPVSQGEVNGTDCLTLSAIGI

T3: human CD200R1 (Homo sapiens, UniProt Q8TD46)
T3 sequence (Q8TD46 25-348): T1 sequence (Q8TD46 25-348)

B1: P001009: phage display anti-CD200R1 clone; VH SEQ ID NO: 79, VL SEQ ID NO: 94 (antibody, V domains shown)
VH: EVQLLESGGGLVQPGGSLRLSCAASGFTFSSYDMSWVRQAPGKGLEWVSWISHGGGSIYYADSVKGRFTISRDNSKNTLYLQMNSLRAEDTAVYYCARDAPAYSAPLFDYWGQGTLVTVSS
VL: QSVLTQPPSASGTPGQRVTISCSGSSSNIGNNAVNWYQQLPGTAPKLLIYYDSNRPSGVPDRFSGSKSGTSASLAISGLRSEDEADYYCAAWDDSLSGYVFGGGTKLTVL
B2: P001009v1: P001009 variant, LC S52 and LC S94 substituted with K and R; VH SEQ ID NO: 79 (antibody, V domains shown)
VH: B1 VH
VL: B1 VL with S53K, S95R

Key:
[1] = biological target: T1, CD200R1 on HH (CRL-2105) cells; experiment: Cell binding assay (flow cytometry), HH cells; format: cell-based
Description: The binding ability of the antibodies identified using unique multifaceted antibody discovery technology was identified in HH (CRL-2105) cells, which endogenously express CD200R1, and Jurkat-CD200R1 cells (Source: DiscoverX), which were generated by intranuclear injection of CD200R1 cDNA.
HH and Jurkat-CD200R1 cells were maintained in RPMI 1640 medium supplemented with 10% heat-inactivated FBS and 1% Penicillin/Streptomycin (P/S). The cells were washed by centrifugation at 130 g for 5 minutes. The cells were seeded onto 96-well round-bottom plates (SPL, #34296) at a density of 1×10^5 cells/well in Flow cytometry staining buffer (Invitrogen, #00-4222-26) or FACS buffer. The cells were treated with all 16 substances and the positive control LY3454738 (US 2020/0087395, I-4P, at Eli Lilly) a concentration of 500 nM in the IgG1 form. After incubation for 1 hour at 4° C., the cells were treated with Alexa-647 Goat anti-human IgG (H+L) cross-adsorbed secondary antibody (Invitrogen, #A21445) and incubated at 4° C. for an additional 30 minutes. […]
Cell-binding ability was determined in the same manner as in Example 12. For the six active substances primarily selected in Example 12, the isotype was changed to IgG4 or the LALAPG gene was mutated, and binding activity was determined in the two cell lines mentioned above.
Binding ability was determined in HH, an endogenous T cell line with high CD200R1 expression, and two additional overexpressing cell lines: U937-CD200R overexpressing cells, generated by intranuclear injection of human CD200R1 CDNA into the monocytic cell line U937 (CRL-1593.2) (Source: UMC Utrecht, the Netherlands) and Jurkat-CD200R overexpressing cells, were also cells engineered using a similar method.
All cell lines were maintained in RPMI 1640 medium supplemented with 10% heat-inactivated FBS and 1% penicillin/streptomycin (P/S) and cell binding was determined in the same manner as in Example 12. […]
Specific binding ability was determined using P001009 WT and antibody-optimized mutants, P001009v1, P001009v2, P001009v3, and P001009v4. […]

[2] = tested on: cynomolgus CD200R1; experiment: SPR binding kinetics, cynomolgus CD200R1; conditions: cynomolgus CD200R1-his captured on anti-His CM5 chip, 1:1 Langmuir fit
Description: The CD200R1-specific binding ability of the antibodies (P001009 wt, P001009 v1, P001009 v2, P001009 v3, P001009 v4) selected in Example 14 was analyzed using surface plasma resonance (SPR). For the experiment, 30 μg/mL of an anti-histidine antibody was conjugated to a CM5 biacore chip via an amine bond while allowing to flow at 10 μl/min (10,000 RU). Then, 0.25 μg/mL of human or cynomolgus CD200R1 with dual His-tags was captured onto the completed chip for 60 seconds, and the binding ability of each antibody was analyzed. All experiments were performed by association of antibodies for 120 seconds and dissociation of antibodies for 600 seconds. The resulting graphs were fitted using a 1:1 Langmuir binding kinetic model (FIG. 16), and the kinetics of each antibody were calculated.

[3] = biological target: T2, mouse CD200R1 protein; experiment: ELISA binding to mouse CD200R1; conditions: concentrations up to 300 nM
Description: (§1) 96-well plates were coated with human CD200R1 (R&D systems, 3414-CD) and mouse CD200R1 protein (R&D systems, 2554-CD) at a concentration of 2 μg/mL at 4° C. for 16 hours and then were blocked with 3% skim milk. The result was treated with the antibodies at concentrations of 300 nM, 60 nM, 12 nM, 2.4 nM, 0.48 nM, 0.096 nM, and 0.0192 nM, and reacted at room temperature for 2 hours.
(§2) The result was washed with PBST and distilled water, the samples were bound with a goat-derived HRP-conjugated anti-human antibody (Invitrogen, 31482, Goat anti-Human IgG F(ab′)2 Secondary Antibody, HRP) for 1 hour at room temperature, and then washed again with PBST and distilled water. Color was developed with a TMB substrate solution (Thermo Scientific, 34029, 1-Step™ TMB-ELISA Ultra Substrate Solution). The color reaction was stopped with stop solution (Invitrogen, SS04, ELISA Stop Solution). The absorbance was measured at an optical density of 450 nm.

[4] = biological target: T3, human CD200R1; experiment: ELISA binding to human CD200R1; conditions: ELISA, Example 14
Description: as §1, §2

Molecule	cell binding ability, IgG4 or LALAPG mutants ([1]; HH cells)	Ka [2] [M⁻¹ s⁻¹]	binding ability to mouse CD200R1 [3]	binding ability to HH cell line ([1]; serial dilution from 100 nM)	binding ability to human CD200R1 compared to parent [4]
B1	highest efficacy	5.63e+06	very weak	–	–
B2	–	5.23e+06	–	exhibited binding ability	improved
